Data: publication PMC3981736, “The Domain-Specific and Temperature-Dependent Protein Misfolding Phenotype of Variant Medium-Chain acyl-CoA Dehydrogenase” (PLoS ONE, 2014)
Where a chain is given by its changes, count along the chain named. In names and notes the source's numbering stands.

B1: medium-chain acyl-CoA dehydrogenase (MCAD) wild-type (enzyme, human, UniProt P11310-1 26-421, looked up)
chain: KANRQREPGLGFSFEFTEQQKEFQATARKFAREEIIPVAAEYDKTGEYPVPLIRRAWELGLMNTHIPENCGGLGLGTFDACLISEELAYGCTGVQTAIEGNSLGQMPIIIAGNDQQKKKYLGRMTEEPLMCAYCVTEPGAGSDVAGIKTKAEKKGDEYIINGQKMWITNGGKANWYFLLARSDPDPKAPANKAFTGFIVEADTPGIQIGRKELNMGQRCSDTRGIVFEDVKVPKENVLIGDGAGFKVAMGAFDKTRPVVAAGAVGLAQRALDEATKYALERKTFGKLLVEHQAISFMLAEMAMKVELARMSYQRAAWEVDSGRRNTYYASIAKAFAGDIANQLATDAVQILGGNGFNTEYPVEKLMRDAKIYQIYEGTSQIQRLIVAREHIDKYKN
notes: medium-chain acyl-CoA dehydrogenase (MCAD), human, cDNA of the ACADM gene cloned into pMALc2X; also called WT; wild-type MCAD; source: E. coli BL21-CodonPlus, purified (MBPTrap, SEC, Factor Xa cleavage, SEC); not shown: MBP, N-terminal, cleaved
B2: MCAD p.Tyr158His (enzyme, human, UniProt P11310-1 26-421, looked up)
chain: B1 chain with Y133H
notes: medium-chain acyl-CoA dehydrogenase (MCAD), human, ACADM cDNA in pMALc2X with a missense mutation found in newborn screening; number counts on the precursor (initiator methionine +1); also called Y158H; p.Tyr133His; source: E. coli DH5α co-transformed with pGroESL, purified (MBPTrap, SEC, Factor Xa cleavage, SEC); not shown: MBP, N-terminal, cleaved
B3: MCAD p.Arg206Cys (enzyme, human, UniProt P11310-1 26-421, looked up)
chain: B1 chain with R181C
notes: medium-chain acyl-CoA dehydrogenase (MCAD), human, ACADM cDNA in pMALc2X with a missense mutation found in newborn screening; number counts on the precursor (initiator methionine +1); also called R206C; p.Arg181Cys; source: E. coli DH5α co-transformed with pGroESL, purified (MBPTrap, SEC, Factor Xa cleavage, SEC); not shown: MBP, N-terminal, cleaved
B4: MCAD p.Ala52Val (enzyme, human, UniProt P11310-1 26-421, looked up)
chain: B1 chain with A27V
notes: medium-chain acyl-CoA dehydrogenase (MCAD), human, ACADM cDNA in pMALc2X with a missense mutation found in newborn screening; number counts on the precursor (initiator methionine +1); also called p.Ala27Val; A27V; source: E. coli DH5α co-transformed with pGroESL, purified (MBPTrap, SEC, Factor Xa cleavage, SEC); not shown: MBP, N-terminal, cleaved
B5: MCAD p.Tyr67His (enzyme, human, UniProt P11310-1 26-421, looked up)
chain: B1 chain with Y42H
notes: medium-chain acyl-CoA dehydrogenase (MCAD), human, ACADM cDNA in pMALc2X with a missense mutation found in newborn screening; number counts on the precursor (initiator methionine +1); also called Y67H; p.Tyr42His; source: E. coli DH5α co-transformed with pGroESL, purified (MBPTrap, SEC, Factor Xa cleavage, SEC); not shown: MBP, N-terminal, cleaved
B6: MCAD p.Arg413Ser (enzyme, human, UniProt P11310-1 26-421, looked up)
chain: B1 chain with R388S
notes: medium-chain acyl-CoA dehydrogenase (MCAD), human, ACADM cDNA in pMALc2X with a missense mutation found in newborn screening; number counts on the precursor (initiator methionine +1); also called R413S; p.Arg388Ser; source: E. coli DH5α co-transformed with pGroESL, purified (MBPTrap, SEC, Factor Xa cleavage, SEC); not shown: MBP, N-terminal, cleaved
B7: MCAD p.Lys329Glu (enzyme, human, UniProt P11310-1 26-421, looked up)
chain: B1 chain with K304E
notes: medium-chain acyl-CoA dehydrogenase (MCAD), human, ACADM cDNA in pMALc2X with a missense mutation found in patients; number counts on the precursor (initiator methionine +1); also called K329E; p.Lys304Glu; source: E. coli DH5α co-transformed with pGroESL, purified (MBPTrap, SEC, Factor Xa cleavage, SEC); not shown: MBP, N-terminal, cleaved
B8: MCAD p.Arg334Lys (enzyme, human, UniProt P11310-1 26-421, looked up)
chain: B1 chain with R309K
notes: medium-chain acyl-CoA dehydrogenase (MCAD), human, ACADM cDNA in pMALc2X with a missense mutation found in newborn screening; number counts on the precursor (initiator methionine +1); also called R334K; p.Arg309Lys; source: E. coli DH5α co-transformed with pGroESL, purified (MBPTrap, SEC, Factor Xa cleavage, SEC); not shown: MBP, N-terminal, cleaved
B9: MCAD p.Asp266Gly (enzyme, human, UniProt P11310-1 26-421, looked up)
chain: B1 chain with D241G
notes: medium-chain acyl-CoA dehydrogenase (MCAD), human, ACADM cDNA in pMALc2X with a missense mutation found in newborn screening; number counts on the precursor (initiator methionine +1); also called D266G; p.Asp241Gly; source: E. coli DH5α co-transformed with pGroESL, purified (MBPTrap, SEC, Factor Xa cleavage, SEC); not shown: MBP, N-terminal, cleaved

Molecular target: the molecule itself
Assay: SEC; re-chromatography after Factor Xa cleavage of the MBP tag; HiLoad 16/600 Superdex 200, 20 mM HEPES pH 7.0, 200 mM NaCl, 4 °C; tetrameric fraction pooled

Stoichiometry N, 4:
B1, B2, B3, B4, B5, B6, B7, B8, B9
